Target: angiotensin converting enzyme (Homo sapiens, UniProt P12821)
Experiment: ACE inhibition activity measurement (IC50)
Assay type: biochemical
Conditions: FIG. 6; for ACE inhibition: isolated peptides
Method: The inventors of the present invention measured the ACE inhibition activities based on the process concentration with respect to the second hydrolysate containing a lower molecular weight among the gelatin extracts of the skins of a skate ray obtained from the above embodiments so as to develop a new hypertension therapy medicine which could be quickly absorbed by a human body and has a good effect, and the measurements were conducted in the method of measuring IC50 concentration which could inhibit 50% of the angiotensin converting enzyme in accordance with the angiotensin converting enzyme inhibition measurement method.
The inventors of the present invention isolated two active peptides by way of FPLC (Fast Protein Liquid Chromatography) with respect to the second hydrolysate so as to isolate the functional peptides having an antihypertensive activity contained in the second hydrolysate of the gelatin extract obtained from the skins of a skate ray. As a result of the analysis on the base sequence of the peptide, it was confirmed that the peptide had the following base sequence. In addition, the ACE inhibition (IC50) was checked in the earlier explained method so as to check the antihypertensive activity with respect to the peptides.

angiotensin converting enzyme, sequence (P12821 30-1306, species assumed): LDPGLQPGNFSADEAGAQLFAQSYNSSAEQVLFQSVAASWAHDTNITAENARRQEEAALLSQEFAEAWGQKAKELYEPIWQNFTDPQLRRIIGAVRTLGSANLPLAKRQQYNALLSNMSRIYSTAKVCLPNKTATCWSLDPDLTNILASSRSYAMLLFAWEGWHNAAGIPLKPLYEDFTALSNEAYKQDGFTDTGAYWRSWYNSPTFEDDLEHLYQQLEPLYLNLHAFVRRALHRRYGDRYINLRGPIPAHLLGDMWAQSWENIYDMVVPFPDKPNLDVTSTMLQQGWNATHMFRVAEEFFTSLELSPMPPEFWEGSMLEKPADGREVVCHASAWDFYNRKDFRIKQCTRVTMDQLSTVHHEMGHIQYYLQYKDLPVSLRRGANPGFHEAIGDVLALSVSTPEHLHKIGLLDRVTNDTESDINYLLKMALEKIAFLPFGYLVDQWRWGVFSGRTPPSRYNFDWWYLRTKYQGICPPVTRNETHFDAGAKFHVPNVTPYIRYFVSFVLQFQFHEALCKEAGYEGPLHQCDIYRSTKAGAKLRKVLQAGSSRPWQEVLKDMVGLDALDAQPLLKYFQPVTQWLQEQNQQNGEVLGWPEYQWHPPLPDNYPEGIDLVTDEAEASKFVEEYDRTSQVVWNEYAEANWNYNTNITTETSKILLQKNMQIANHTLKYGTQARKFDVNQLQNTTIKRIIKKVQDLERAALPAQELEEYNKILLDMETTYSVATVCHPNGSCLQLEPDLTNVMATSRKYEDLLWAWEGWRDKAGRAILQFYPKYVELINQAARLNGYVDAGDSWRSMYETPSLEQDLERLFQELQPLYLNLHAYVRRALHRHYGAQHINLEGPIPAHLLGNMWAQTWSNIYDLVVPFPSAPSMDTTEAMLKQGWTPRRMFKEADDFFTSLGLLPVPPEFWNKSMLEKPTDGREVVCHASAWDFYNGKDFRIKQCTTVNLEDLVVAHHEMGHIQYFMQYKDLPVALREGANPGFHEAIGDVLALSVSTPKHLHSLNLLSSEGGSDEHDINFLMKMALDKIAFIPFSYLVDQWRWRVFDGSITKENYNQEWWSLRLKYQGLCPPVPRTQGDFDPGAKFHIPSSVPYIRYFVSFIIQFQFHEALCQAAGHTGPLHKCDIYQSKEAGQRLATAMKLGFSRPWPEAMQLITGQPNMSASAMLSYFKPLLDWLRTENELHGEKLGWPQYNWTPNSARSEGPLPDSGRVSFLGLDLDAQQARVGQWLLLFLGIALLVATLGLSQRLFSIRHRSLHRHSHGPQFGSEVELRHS

ACE inhibition | Substance | antihypertensive activity (ACE inhibition) compared with the other peptide
have the ACE inhibition | MVGSAPGVL [SPI, peptide (829 Da) isolated by FPLC from the second hydrolysate] | higher antihypertensive activity as compared to the SP2
have the ACE inhibition | LGPLGHQ [SP2, peptide (720 Da) isolated by FPLC from the second hydrolysate] | 

Source: patent US20140072650A1, “GELATIN EXTRACT MADE FROM SKATE RAY SKIN AND ANTIHYPERTENSIVE COMPOSITION HAVING PEPTIDE ISOLATED FROM EXTRACT AS ACTIVE INGREDIENT” (PUKYONG NATIONAL UNIVERSITY INDUSTRY-UNIVERSITY CO, priority 2012, published 2014)
